How the values were obtained:
[1] = tested on: Akt signaling (pAkt, S6 protein, 4EBP-1) in LNCaP and T47D cells; assay: Western blot of Akt pathway phosphorylation in LNCaP and T47D cells; conditions: 3 hrs
[2] = Blood glucose in nude mice; assay type: in vivo, mouse; conditions: 40 μg insulin ip in animals treated with 100 mpk AKTi
Akt1 = Akt1 (Mus musculus, UniProt P31750); assay: Ex vivo IP-kinase assay of Akt1 in mouse tissues; conditions: exogenous insulin ip
[3] = Plasma insulin in nude mice; conditions: 30 min after injection; for plasma insulin levels increase: no AKTi
Akt3 = Akt3 (Mus musculus, UniProt Q9WUA6); assay: Ex vivo IP-kinase assay of Akt3 in mouse tissues; conditions: exogenous insulin ip (1 or 5 μg)
Akt3, sequence (Q9WUA6 whole entry): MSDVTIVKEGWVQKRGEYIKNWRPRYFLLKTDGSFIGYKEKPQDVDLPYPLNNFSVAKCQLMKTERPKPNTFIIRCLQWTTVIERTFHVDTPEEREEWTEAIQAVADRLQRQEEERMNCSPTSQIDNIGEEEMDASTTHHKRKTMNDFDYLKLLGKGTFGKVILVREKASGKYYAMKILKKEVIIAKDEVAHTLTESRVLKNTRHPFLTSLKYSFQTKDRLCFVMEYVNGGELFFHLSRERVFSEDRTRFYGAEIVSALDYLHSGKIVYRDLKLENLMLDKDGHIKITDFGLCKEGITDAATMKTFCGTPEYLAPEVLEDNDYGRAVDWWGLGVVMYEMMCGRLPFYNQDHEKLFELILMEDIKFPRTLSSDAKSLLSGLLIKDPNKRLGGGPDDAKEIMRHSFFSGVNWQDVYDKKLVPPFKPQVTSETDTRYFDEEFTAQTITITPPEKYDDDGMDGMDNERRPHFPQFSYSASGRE

Akt1, sequence (P31750 whole entry): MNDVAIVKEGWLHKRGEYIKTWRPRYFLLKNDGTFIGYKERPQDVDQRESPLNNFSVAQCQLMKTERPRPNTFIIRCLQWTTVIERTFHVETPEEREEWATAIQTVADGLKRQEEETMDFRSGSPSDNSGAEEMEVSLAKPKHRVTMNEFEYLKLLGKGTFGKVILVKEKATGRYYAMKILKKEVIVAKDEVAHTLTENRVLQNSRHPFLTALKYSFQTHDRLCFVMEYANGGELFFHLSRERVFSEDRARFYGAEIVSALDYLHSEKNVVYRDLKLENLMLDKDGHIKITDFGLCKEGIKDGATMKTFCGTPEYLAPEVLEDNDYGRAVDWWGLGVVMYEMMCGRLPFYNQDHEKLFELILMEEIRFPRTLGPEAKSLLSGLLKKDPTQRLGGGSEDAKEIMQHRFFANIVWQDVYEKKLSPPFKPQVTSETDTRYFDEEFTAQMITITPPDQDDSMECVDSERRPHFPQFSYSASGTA

Compound	blocking phosphorylation of S6 protein and 4EBP-1 [1]	hyper-phosphorylation of Akt [1]	effect on glucose levels [2]	induction of Akt1 activity in liver (Akt1) [fold]	plasma insulin levels increase ([3]; 1 μg insulin ip)	plasma insulin levels increase ([3]; 5 μg insulin ip) [fold]	Insulin, plasma ([3]; insulin 5.0 μg per mouse ip) [ng/mL]	maximal increase of Akt3 activity in lung (Akt3) [%]
Cc1n[nH]c2ccc(-c3cncc(OC[C@@H](N)Cc4c[nH]c5ccccc45)c3)cc12 [A443654]	equally effective at blocking phosphorylation	feed-back hyper-phosphorylation						
Insulin: Recombinant insulin obtained from Invitrogen, injected intraperitoneally			only a minor effect on glucose levels	~10	about 20 fold	~100	77 ± 21	40

From PMC2987445 (Cancer biology & therapy, 2010)
